Experimental data taken from paper PMC2794542.

Target: full length LRRK2, FLAG-tagged and V5-tagged copies co-expressed (human) (UniProt Q5S007)
Assay: co-IP; 293T cells co-transfected with FLAG- and V5-LRRK2; gel filtration fractions 20-23 (α-complex, ~600 kDa) pooled, immunoprecipitated with anti-FLAG, blotted with anti-FLAG and anti-V5, densitometry
Conditions: remark: other sources report otherwise

- ratio of FLAG-LRRK2 to V5-LRRK2 in the anti-FLAG IP: 1.87
- stoichiometry N: 2
Substance: full length LRRK2, FLAG-tagged and V5-tagged copies co-expressed, Q5S007 1-2527
